# Data published in paper PMC9917868.
# Key:
# [1] = molecular target: VAP, endogenous in cultured rat hippocampal neurons (UniProt Q9Z270); test: co-immunoprecipitation (IP: NRG2 (V5)), Western blot densitometry; conditions: AAV-transduced neurons; n = four independent experiments; parent: 1.00; read off a plot
# [2] = molecular target: VAP, endogenous in cultured rat hippocampal neurons (UniProt Q9Z270); test: GST pulldown with peptide competition, Western blot densitometry (VAP left on GST-NRG2_CD bait; lower signal = stronger competition by the peptide); conditions: lysate of untransduced neurons, n = three independent experiments, parent: est. 0.14, read off a plot, scale: normalized VAP signal
# [3] = molecular target: crNRG2 (cleavage-resistant variant of proNRG2) (human) (UniProt O14511); test: co-IP; co-IP of VAP with crNRG2 from transduced rat hippocampal neurons; neurons untreated (Ctrl), treated 10 min with NMDA (50 µM), or with NMDA and D-AP5 (50 µM); VAP signals normalized to Ctrl = 1
Substance,ratio to parent [1],other results
D-WT peptide (wild-type D-box peptide of NRG2) D620K; E622K,–,response [2]: 0.63
"VAP, endogenous in cultured rat hippocampal neurons (from UniProt Q9Z270 1-249) (natural protein)",–,normalized VAP co-IP signal after 10 min NMDA 50 µM (Ctrl = 1) (relative to Ctrl = 1) [3]: 0.31; normalized VAP co-IP signal after NMDA with D-AP5 50 µM (Ctrl = 1) (relative to Ctrl = 1) [3]: 1.1

# Second part, led by results:
ratio to parent [1],Substance,other results
0,"V5 epitope-tagged proNRG2 (wild type), expressed in cultured rat hippocampal neurons (from UniProt O14511) S494A; S497A; S502A; T506A; S511A; S613A; T625A; T626A",–
0.73,"V5 epitope-tagged proNRG2 (wild type), expressed in cultured rat hippocampal neurons (from UniProt O14511) S613A; T625A; T626A",–
0,"V5 epitope-tagged proNRG2 (wild type), expressed in cultured rat hippocampal neurons (from UniProt O14511) S494A; S497A; S502A; T506A; S511A",–
